T1: EsCas13d ([Eubacterium] siraeum DSM 15702)
T1 chain: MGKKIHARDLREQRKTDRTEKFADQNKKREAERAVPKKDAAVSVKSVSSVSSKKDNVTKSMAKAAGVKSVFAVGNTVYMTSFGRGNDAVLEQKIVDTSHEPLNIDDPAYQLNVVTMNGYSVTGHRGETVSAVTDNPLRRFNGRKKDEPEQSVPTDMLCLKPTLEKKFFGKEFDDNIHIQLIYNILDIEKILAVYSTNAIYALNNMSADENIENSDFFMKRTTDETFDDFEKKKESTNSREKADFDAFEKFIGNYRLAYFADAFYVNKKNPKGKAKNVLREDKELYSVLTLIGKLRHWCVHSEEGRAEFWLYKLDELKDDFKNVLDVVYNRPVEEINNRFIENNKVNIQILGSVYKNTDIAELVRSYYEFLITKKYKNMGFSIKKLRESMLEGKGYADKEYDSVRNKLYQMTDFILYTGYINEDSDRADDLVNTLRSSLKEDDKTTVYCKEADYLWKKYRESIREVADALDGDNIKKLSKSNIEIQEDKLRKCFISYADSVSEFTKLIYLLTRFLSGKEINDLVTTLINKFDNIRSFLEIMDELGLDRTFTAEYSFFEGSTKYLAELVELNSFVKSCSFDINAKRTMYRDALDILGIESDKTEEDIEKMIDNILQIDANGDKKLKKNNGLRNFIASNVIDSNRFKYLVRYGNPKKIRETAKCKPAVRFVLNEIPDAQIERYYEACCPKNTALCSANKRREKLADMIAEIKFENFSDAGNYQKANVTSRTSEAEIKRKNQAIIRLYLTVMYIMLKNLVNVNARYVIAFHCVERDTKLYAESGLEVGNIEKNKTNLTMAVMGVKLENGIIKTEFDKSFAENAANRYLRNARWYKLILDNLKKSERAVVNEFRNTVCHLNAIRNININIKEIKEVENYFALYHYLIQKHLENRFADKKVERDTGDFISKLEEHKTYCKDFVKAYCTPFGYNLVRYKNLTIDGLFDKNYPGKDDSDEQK


Columns and labels:
EsCas13d = target: T1, EsCas13d; experiment: ITC
RspCas13d = RspCas13d (Ruminococcus sp. (from the prefix Rsp, …)); experiment: ITC

Binder	Kd (EsCas13d)	Kd (RspCas13d)
full-length RspWYL1 (Ruminococcus sp. WYL1, amino acids 1–392) (natural protein, apo (no crRNA); full length assumed, since limits are not given; 954 aa matches the known EsCas13d length) MLIPPSTFLPKRDKNVPYIAEVQSIPLSPSAYSVIIKDKSIFETSLSPNGSVSMSSFLTSIFDSAYIASLKYKSDDNYKYIGIPLLNAFVEWQIEEIDDSLDDKSKEIIKSYLISKLSAKYEKTKTENAVRVRLSICRDLYDTLSSDDLYYENKVYSLTLRRFLKAVYEDYALLSDCERERLIFADNIIKINEVIKQNGSRYYSFIYAYSNMYSREKRRIRLIPYRIVSDEYKMYNYLVCLSDEKSAGKEFKADSYRISRLSGLSIAEKLSQKEYSSVTEYERLKEGHVKSVKHLLSDPRFGSDESDISKVYLTEKGVEMFRKILYQRPILKGNEKPKPNTVNEFISPPIQVKYYFNKFGKDGVILSPSDSFEEMRTLYVEGADAYNREVEM	~270 µM	–
full-length RspWYL1 (Ruminococcus sp. WYL1, amino acids 1–392) (natural protein) MLIPPSTFLPKRDKNVPYIAEVQSIPLSPSAYSVIIKDKSIFETSLSPNGSVSMSSFLTSIFDSAYIASLKYKSDDNYKYIGIPLLNAFVEWQIEEIDDSLDDKSKEIIKSYLISKLSAKYEKTKTENAVRVRLSICRDLYDTLSSDDLYYENKVYSLTLRRFLKAVYEDYALLSDCERERLIFADNIIKINEVIKQNGSRYYSFIYAYSNMYSREKRRIRLIPYRIVSDEYKMYNYLVCLSDEKSAGKEFKADSYRISRLSGLSIAEKLSQKEYSSVTEYERLKEGHVKSVKHLLSDPRFGSDESDISKVYLTEKGVEMFRKILYQRPILKGNEKPKPNTVNEFISPPIQVKYYFNKFGKDGVILSPSDSFEEMRTLYVEGADAYNREVEM	–	~250 µM
